These results are taken from US20250353920A1 (SUBDOMAIN, published 2025).

The target of experiment [1] is control (IgG Fc). Briefly: phage ELISA, 89 identical clones, control wells.
In experiment [2] the target is control (IgG Fc). Briefly: phage ELISA, control wells, lower end of the distribution.
For experiment [3], the target named is control (IgG Fc). Briefly: phage ELISA, control wells, upper end of the distribution.
In the next experiment the target is T1, CD123 (Homo sapiens (Human), UniProt P26951 19-305, limits assumed).
T1 sequence: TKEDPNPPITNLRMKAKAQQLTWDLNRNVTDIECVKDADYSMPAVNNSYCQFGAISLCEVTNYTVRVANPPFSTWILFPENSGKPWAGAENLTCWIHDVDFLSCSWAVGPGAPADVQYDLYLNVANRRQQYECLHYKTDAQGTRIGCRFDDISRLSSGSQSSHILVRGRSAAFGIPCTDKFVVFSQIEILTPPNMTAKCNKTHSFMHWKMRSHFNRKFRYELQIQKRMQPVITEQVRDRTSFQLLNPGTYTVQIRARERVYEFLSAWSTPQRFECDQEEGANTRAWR
Briefly: library selection; assay not told.

B1: bb10 (designed binder)
chain: MGSWAEFKQRLAAIKTRLEALGGSEAELAAFLGEIWAFEMELAAYKGKGNPEVEALGREAAAIRMELQAYRHN
As for B1, the ELISA absorbance came out at 0.067 OD with control (IgG Fc) [1], 0.056 OD with control (IgG Fc) [2] and 0.125 OD with control (IgG Fc) [3].

B2: SEQ ID NO 101 (designed binder)
chain: MGSWTEFDRRLDAIWDRLFALGGSEAELAAFEKEIAAFESELQAYKGKGNPEVEWLREEAADIRDYLQAYRHN
notes: DBDpp, library F3
For B2, the binding result with CD123 was “binds”.

B3: SEQ ID NO 102 (designed binder)
chain: B2 chain
notes: DBDpp, library F3
Take B3: the binding result with CD123 was “binds”.

B4: SEQ ID NO 114 (designed binder)
chain: B2 chain
notes: DBDpp, library F3
Consider B4, for which the binding result with CD123 is reported as “binds”.
